B1: chCB6-huIgG1 R301A (antibody, name in EU numbering)
heavy: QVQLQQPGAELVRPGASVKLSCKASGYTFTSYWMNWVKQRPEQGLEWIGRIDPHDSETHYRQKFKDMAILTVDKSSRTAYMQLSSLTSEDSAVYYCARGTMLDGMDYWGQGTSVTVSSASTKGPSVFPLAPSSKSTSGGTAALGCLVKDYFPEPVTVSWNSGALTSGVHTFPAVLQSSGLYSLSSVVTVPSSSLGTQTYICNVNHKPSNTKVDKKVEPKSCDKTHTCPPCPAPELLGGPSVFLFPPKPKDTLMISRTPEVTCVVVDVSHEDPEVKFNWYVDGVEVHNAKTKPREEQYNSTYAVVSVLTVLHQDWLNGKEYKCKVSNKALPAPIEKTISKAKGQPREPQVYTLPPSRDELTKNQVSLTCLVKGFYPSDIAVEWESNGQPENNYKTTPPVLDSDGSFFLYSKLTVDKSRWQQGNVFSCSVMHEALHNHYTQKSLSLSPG
light: QIVLTQSPAIMSASPGEKVTMTCRASSSVSHMHWYQQKSGTSPKRWIYDTSKLASGVPARFSGSGSGTSYSLTISSVEAEDAATYYCQQWSSNPLTFGAGTKLELKRTVAAPSVFIFPPSDEQLKSGTASVVCLLNNFYPREAKVQWKVDNALQSGNSQESVTEQDSKDSTYSLSSTLTLSKADYEKHKVYACEVTHQGLSSPVTKSFNRGEC
notes: copies: 2 + 2
B2: chCB6-huIgG1 Y296T (antibody, name in EU numbering)
heavy: not shown
light: B1 light
notes: copies: 2 + 2
B3: chCB6-huIgG1 Y296Q (antibody, name in EU numbering)
heavy: not shown
light: B1 light
notes: copies: 2 + 2
B4: chCB6-huIgG1 R301S (antibody, name in EU numbering)
heavy: not shown
light: B1 light
notes: copies: 2 + 2
B5: chCB6-huIgG1 R301K (antibody, name in EU numbering)
heavy: not shown
light: B1 light
notes: copies: 2 + 2
B6: chCB6-huIgG1 E294N (antibody, name in EU numbering)
heavy: not shown
light: B1 light
notes: copies: 2 + 2
B7: chCB6-huIgG1 R301N (antibody, name in EU numbering)
heavy: not shown
light: B1 light
notes: copies: 2 + 2
B8: chCB6-huIgG1 E294T (antibody, name in EU numbering)
heavy: not shown
light: B1 light
notes: copies: 2 + 2
B9: chCB6-huIgG1 R301T (antibody, name in EU numbering)
heavy: not shown
light: B1 light
notes: copies: 2 + 2
B10: chCB6-huIgG1 I332H (antibody, name in EU numbering)
heavy: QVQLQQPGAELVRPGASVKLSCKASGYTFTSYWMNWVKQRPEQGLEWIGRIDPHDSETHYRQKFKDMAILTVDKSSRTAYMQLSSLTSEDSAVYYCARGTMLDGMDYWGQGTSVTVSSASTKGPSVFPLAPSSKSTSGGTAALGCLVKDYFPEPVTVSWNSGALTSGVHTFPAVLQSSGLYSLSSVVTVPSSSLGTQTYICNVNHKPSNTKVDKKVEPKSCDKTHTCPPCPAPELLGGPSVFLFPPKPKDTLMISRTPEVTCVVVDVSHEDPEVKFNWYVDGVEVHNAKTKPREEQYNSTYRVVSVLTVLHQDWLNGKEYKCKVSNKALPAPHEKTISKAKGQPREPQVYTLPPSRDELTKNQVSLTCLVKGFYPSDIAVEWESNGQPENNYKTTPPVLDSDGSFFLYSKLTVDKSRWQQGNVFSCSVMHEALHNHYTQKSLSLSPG
light: B1 light
notes: copies: 2 + 2
B11: chCB6-huIgG1 S239D (antibody, name in EU numbering)
heavy: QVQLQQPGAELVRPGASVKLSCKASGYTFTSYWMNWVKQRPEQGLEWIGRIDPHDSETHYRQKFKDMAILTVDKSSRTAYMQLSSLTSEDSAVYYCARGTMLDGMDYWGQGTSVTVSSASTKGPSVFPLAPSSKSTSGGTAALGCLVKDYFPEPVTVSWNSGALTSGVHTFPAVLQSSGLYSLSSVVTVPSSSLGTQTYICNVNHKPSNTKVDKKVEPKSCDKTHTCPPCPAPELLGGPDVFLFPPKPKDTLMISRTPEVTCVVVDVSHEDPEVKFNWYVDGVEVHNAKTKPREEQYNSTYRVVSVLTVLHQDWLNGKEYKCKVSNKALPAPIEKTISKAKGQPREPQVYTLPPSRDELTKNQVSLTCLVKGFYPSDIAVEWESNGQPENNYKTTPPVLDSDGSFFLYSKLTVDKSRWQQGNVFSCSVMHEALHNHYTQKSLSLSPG
light: B1 light
notes: copies: 2 + 2
B12: chCB6-huIgG1 I332D (antibody, name in EU numbering)
heavy: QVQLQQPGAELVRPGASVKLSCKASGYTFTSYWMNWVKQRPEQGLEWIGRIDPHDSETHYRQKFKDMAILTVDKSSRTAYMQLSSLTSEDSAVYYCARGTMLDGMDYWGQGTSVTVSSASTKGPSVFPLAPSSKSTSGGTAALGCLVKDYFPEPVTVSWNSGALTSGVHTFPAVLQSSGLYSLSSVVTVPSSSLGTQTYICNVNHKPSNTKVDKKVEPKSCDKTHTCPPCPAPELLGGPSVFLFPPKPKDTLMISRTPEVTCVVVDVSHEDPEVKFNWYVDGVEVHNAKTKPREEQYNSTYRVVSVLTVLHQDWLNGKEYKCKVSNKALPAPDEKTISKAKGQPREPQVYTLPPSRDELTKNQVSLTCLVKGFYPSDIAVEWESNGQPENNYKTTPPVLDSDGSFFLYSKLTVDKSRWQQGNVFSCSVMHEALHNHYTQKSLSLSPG
light: B1 light
notes: copies: 2 + 2
B13: chCB6-huIgG1 I332Q (antibody, name in EU numbering)
heavy: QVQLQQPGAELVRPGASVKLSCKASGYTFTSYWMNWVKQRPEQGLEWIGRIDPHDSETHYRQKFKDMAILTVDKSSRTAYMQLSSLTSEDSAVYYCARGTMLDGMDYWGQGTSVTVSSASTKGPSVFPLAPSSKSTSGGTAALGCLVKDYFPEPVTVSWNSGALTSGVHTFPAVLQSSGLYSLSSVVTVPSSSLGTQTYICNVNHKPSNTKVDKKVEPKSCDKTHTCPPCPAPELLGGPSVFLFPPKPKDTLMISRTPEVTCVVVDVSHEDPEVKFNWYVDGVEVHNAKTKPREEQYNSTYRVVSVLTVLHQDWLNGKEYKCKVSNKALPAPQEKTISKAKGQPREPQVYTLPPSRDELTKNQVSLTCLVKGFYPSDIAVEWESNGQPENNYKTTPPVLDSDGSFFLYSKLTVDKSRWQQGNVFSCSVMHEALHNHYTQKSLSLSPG
light: B1 light
notes: copies: 2 + 2
B14: chCB6-huIgG1 L328Q (antibody, name in EU numbering)
heavy: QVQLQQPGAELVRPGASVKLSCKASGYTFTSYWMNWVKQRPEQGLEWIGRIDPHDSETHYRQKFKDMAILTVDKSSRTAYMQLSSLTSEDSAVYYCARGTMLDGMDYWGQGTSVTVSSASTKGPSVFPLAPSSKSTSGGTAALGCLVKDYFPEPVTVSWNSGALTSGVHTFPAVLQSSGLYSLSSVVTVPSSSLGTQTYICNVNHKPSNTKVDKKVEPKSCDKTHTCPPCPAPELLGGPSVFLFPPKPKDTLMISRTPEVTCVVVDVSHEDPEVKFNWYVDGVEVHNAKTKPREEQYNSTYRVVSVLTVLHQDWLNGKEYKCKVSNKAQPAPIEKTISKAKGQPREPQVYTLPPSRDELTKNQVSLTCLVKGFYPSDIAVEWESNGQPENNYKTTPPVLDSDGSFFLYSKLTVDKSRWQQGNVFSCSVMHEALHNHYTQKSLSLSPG
light: B1 light
notes: copies: 2 + 2
B15: chCB6-huIgG1 S239E (antibody, name in EU numbering)
heavy: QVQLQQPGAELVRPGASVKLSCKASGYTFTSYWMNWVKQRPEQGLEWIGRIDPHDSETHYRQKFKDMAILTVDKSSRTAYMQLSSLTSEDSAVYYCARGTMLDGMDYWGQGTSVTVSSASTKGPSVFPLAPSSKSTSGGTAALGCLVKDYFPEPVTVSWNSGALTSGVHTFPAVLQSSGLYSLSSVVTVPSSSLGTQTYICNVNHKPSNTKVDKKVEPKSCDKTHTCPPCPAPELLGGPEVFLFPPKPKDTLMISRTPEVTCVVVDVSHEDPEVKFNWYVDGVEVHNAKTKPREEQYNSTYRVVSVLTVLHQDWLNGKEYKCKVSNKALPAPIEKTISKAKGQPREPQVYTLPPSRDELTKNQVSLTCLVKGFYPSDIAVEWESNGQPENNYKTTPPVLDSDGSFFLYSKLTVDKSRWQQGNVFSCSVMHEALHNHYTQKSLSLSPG
light: B1 light
notes: copies: 2 + 2
B16: chCB6-huIgG1 H268P (antibody, name in EU numbering)
heavy: not shown
light: B1 light
notes: copies: 2 + 2
B17: chCB6-huIgG1 A330H (antibody, name in EU numbering)
heavy: not shown
light: B1 light
notes: copies: 2 + 2
B18: chCB6-huIgG1 G236A (antibody, name in EU numbering)
heavy: not shown
light: B1 light
notes: copies: 2 + 2
B19: chCB6-huIgG1 H268D (antibody, name in EU numbering)
heavy: not shown
light: B1 light
notes: copies: 2 + 2
B20: chCB6-huIgG1 S239H (antibody, name in EU numbering)
heavy: not shown
light: B1 light
notes: copies: 2 + 2
B21: chCB6-huIgG1 S239P (antibody, name in EU numbering)
heavy: not shown
light: B1 light
notes: copies: 2 + 2
B22: chCB6-huIgG1 L328T (antibody, name in EU numbering)
heavy: not shown
light: B1 light
notes: copies: 2 + 2
B23: chCB6-huIgG1 L234Q (antibody, name in EU numbering)
heavy: not shown
light: B1 light
notes: copies: 2 + 2
B24: chCB6-huIgG1 S239D/A378W (antibody, name in EU numbering)
heavy: not shown
light: B1 light
notes: copies: 2 + 2
B25: chCB6-huIgG1 I332D/A378F (antibody, name in EU numbering)
heavy: not shown
light: B1 light
notes: copies: 2 + 2
B26: chCB6-huIgG1 S239D/A378K (antibody, name in EU numbering)
heavy: not shown
light: B1 light
notes: copies: 2 + 2
B27: chCB6-huIgG1 I332D/A378Y (antibody, name in EU numbering)
heavy: not shown
light: B1 light
notes: copies: 2 + 2
B28: chCB6-huIgG1 S239D/H435G (antibody, name in EU numbering)
heavy: not shown
light: B1 light
notes: copies: 2 + 2
B29: chCB6-huIgG1 S239D/A378F (antibody, name in EU numbering)
heavy: not shown
light: B1 light
notes: copies: 2 + 2
B30: chCB6-huIgG1 I332D/H435S (antibody, name in EU numbering)
heavy: not shown
light: B1 light
notes: copies: 2 + 2
B31: chCB6-huIgG1 I332D/A378W (antibody, name in EU numbering)
heavy: not shown
light: B1 light
notes: copies: 2 + 2
B32: chCB6-huIgG1 I332D/A378K (antibody, name in EU numbering)
heavy: not shown
light: B1 light
notes: copies: 2 + 2
B33: chCB6-huIgG1 I332D/H435G (antibody, name in EU numbering)
heavy: not shown
light: B1 light
notes: copies: 2 + 2
B34: chCB6-huIgG1 S239D/A378Y (antibody, name in EU numbering)
heavy: not shown
light: B1 light
notes: copies: 2 + 2

target: T1, human FcγRIII (CD16), CD16a (F158), on CD16-transfected Jurkat cells (human, UniProt P08637 17-254); assay: CD16 bridging assay, transient
T1 construct: whole, on cells
T1 sequence (P08637 17-254): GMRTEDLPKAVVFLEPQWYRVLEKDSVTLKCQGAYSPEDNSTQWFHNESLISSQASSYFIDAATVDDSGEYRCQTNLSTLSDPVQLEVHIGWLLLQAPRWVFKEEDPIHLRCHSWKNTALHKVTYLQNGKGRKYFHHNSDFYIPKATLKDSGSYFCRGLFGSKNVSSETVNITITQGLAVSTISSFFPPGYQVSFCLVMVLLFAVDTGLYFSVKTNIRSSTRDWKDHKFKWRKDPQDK

| Binder | fold decrease in binding vs WT [fold] | binding result |
| --- | --- | --- |
| B1 | 5 |  |
| B2 |  | no binding |
| B3 | 5 |  |
| B4 |  | binds |
| B5 | 5 |  |
| B6 | 8 |  |
| B7 | 5 |  |
| B8 | 8 |  |
| B9 |  | binds |

target: T2, human C1q (Sigma C0660) (human, UniProt P02745 23-245; P02746 28-253; P02747 29-245); assay: C1q ELISA on CD2, purified
T2 construct: Bought protein; also called complement protein C1q
Description: (§1) The C1q binding assay was performed by coating 96 well Maxisorb ELISA plates (Nalge-Nunc Rochester, N.Y., USA) with 50 μl recombinant soluble human CD2 at 10 μg/ml overnight at 4° C. in PBS. The wells were aspirated and washed three times with wash buffer (PBS, 0.05% Tween 20) and blocked for >1 h with 200 μ/well of block/diluent buffer (0.1 M Na₂HPO₄, pH 7, 0.1 M NaCl, 0.05% Tween 20, 0.1% gelatin). The antibody to be tested was diluted in block/diluent buffer starting at 15 μg/ml with 3-fold dilutions. 50 μl were added per well, and the plates incubated for 2 h at room temperature. After aspirating and washing as above, 50 μl/well of 2 μg/ml of Sigma human C1q (C0660) diluted in block/diluent buffer was added and incubated for 1.5 h at room temperature. After aspirating and washing as above, 50 μl/well of chicken anti human C1q (Cedarlane laboratories CL2101AP), diluted 2,000-fold in block/diluent buffer, was added. After incubation for 1.5 h at room temperature, the wells were aspirated and washed as above. 50 μl/well of donkey F(ab′)₂ anti chicken IgY HRP conjugate (Jackson ImmunoResearch 703-036-155) diluted to 1:5,000 in block/diluent was then added, and the wells incubated for 1 h at room temperature. After aspirating and washing as above, 100 μl TMB substrate (420 μM TMB, 0.004% H₂O₂ in 0.1 M sodium acetate/citric acid buffer, pH 4.9) was added and incubated for 2 min before the reaction was stopped with 100 μl 2 N sulfuric acid. The absorbance was read at 450 nm with a Softmax P instrument, and Softmax software was used to determine the relative binding affinity (C value) with a 4-parameter fit.

T2 sequence (P02745 23-245 limits assumed, chain 1 of 3): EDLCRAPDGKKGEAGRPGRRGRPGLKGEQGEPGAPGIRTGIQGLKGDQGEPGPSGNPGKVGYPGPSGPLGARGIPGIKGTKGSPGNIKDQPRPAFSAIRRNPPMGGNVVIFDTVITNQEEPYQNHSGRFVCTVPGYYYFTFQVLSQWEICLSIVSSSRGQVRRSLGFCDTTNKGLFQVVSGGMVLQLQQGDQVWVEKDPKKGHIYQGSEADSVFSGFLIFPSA
T2 sequence (P02746 28-253 limits assumed, chain 2 of 3): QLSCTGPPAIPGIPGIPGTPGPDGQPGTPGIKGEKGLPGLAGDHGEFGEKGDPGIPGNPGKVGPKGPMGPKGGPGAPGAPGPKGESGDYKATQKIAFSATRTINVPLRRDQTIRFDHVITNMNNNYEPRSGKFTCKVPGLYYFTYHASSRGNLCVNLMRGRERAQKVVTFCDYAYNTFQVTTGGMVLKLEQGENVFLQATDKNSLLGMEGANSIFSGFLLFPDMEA
T2 sequence (P02747 29-245 limits assumed, chain 3 of 3): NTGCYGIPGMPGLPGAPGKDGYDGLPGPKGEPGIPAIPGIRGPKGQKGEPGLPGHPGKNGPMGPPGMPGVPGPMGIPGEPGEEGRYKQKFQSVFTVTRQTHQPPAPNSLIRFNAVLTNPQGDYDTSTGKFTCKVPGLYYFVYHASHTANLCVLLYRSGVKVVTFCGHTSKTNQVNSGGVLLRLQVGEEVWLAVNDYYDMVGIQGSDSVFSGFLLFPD

| Binder | binding result | fold decrease in binding vs WT [fold] |
| --- | --- | --- |
| B10 | binds |  |
| B11 |  | 2 |
| B12 | binds |  |
| B13 | binds |  |
| B14 | no binding |  |
| B15 |  | 2 |

target: T3, human FcγRI (CD64) on IFNγ-activated U937 cells (human, UniProt P12314 16-374); assay: CD64 bridging assay, purified
T3 construct: whole, on cells; also called FcγR1
T3 sequence (P12314 16-374): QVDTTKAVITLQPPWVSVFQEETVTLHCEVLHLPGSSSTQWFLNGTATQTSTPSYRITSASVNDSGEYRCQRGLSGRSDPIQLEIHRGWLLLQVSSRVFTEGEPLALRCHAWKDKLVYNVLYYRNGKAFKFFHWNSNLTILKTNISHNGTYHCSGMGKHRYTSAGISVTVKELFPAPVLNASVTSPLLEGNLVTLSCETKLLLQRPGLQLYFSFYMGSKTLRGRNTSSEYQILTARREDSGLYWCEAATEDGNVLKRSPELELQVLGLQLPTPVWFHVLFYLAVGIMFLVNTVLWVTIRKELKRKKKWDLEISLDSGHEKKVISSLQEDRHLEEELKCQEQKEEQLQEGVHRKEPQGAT

| Binder | binding result |
| --- | --- |
| B10 | binds |
| B11 | binds |
| B12 | binds |
| B13 | binds |
| B14 | binds |
| B15 | binds |

target: T1, human FcγRIII (CD16), CD16a (F158), on …; assay: CD16 bridging assay, purified

| Binder | fold decrease in binding vs WT [fold] | fold increase in binding vs WT [fold] |
| --- | --- | --- |
| B10 | 2 |  |
| B11 |  | 6 |
| B12 |  | 9 |
| B13 |  | 2 |
| B14 | 2 |  |
| B15 |  | 3 |

target: T1, human FcγRIII (CD16), CD16a (F158), on …; assay: CD16 bridging assay, transient; remark: another data set of the same source

| Binder | fold increase in binding vs WT [fold] | fold decrease in binding vs WT [fold] |
| --- | --- | --- |
| B11 | 6 |  |
| B12 | 15 |  |
| B13 | 2 |  |
| B14 |  | 3 |
| B15 | 4 |  |

target: T2, human C1q (Sigma C0660); assay: C1q ELISA on CD2, transient
Description: as §1

| Binder | binding result | fold decrease in binding vs WT [fold] |
| --- | --- | --- |
| B1 | binds |  |
| B2 |  | 3 |
| B3 |  | 4 |
| B4 | binds |  |
| B5 | binds |  |
| B6 |  | 7 |
| B7 |  | 3 |
| B9 | binds |  |

target: T4, GST-tagged FcγRIII, CD16a (V158) (UniProt P08637 17-208, limits assumed); assay: AlphaScreen competition vs huIgG1 beads, purified
T4 construct: the canonical entry carries F there; Captured by biotinylated anti-GST mAb on streptavidin donor beads; also called GST-FcγRIII; not shown: GST tag
Description: The relative binding affinities to FcγRIII (CD16), of the variant antibodies, was determined using an AlphaScreen assay (Amplified Luminescent Proximity Homogeneous Assay, PerkinElmer, MA, USA). Laser excitation of a donor bead excites oxygen, which if in close proximity to an acceptor bead generates a cascade of chemiluminescent events, ultimately leading to fluorescence emission at 520-620 nm. […] The reaction was carried out for one hour in a 25 μl volume and plates were read in the Fusion Alpha reader (PerkinElmer).

T4 sequence (P08637 17-208 F176V limits assumed): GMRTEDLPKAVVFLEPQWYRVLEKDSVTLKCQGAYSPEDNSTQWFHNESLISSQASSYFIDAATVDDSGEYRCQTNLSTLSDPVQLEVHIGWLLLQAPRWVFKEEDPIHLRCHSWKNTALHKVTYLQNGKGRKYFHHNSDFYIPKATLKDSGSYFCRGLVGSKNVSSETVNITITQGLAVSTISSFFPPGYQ

| Binder | fold increase in binding vs WT [fold] |
| --- | --- |
| B11 | 9 |
| B12 | 4 |
| B15 | 8 |

target: T1, human FcγRIII (CD16), CD16a (F158), on …; assay: CD16 bridging assay, transient; remark: another data set of the same source

| Binder | fold decrease in binding vs WT [fold] | binding result | fold increase in binding vs WT [fold] |
| --- | --- | --- | --- |
| B16 | 3 |  |  |
| B17 |  | binds |  |
| B18 | 2 |  |  |
| B19 |  |  | 3 |
| B20 |  | no binding |  |
| B21 |  | no binding |  |
| B22 | 3 |  |  |
| B23 | 5 |  |  |

target: T1, human FcγRIII (CD16), CD16a (F158), on …; assay: CD16 bridging assay, transient; remark: another data set of the same source

| Binder | fold increase in binding vs WT [fold] | binding result |
| --- | --- | --- |
| B24 | 4 |  |
| B25 | 5 |  |
| B26 | 5 |  |
| B27 | 5 |  |
| B28 | 3 |  |
| B29 | 5 |  |
| B30 |  | binds |
| B31 | 5 |  |
| B32 |  | binds |
| B33 |  | binds |
| B34 | 4 |  |
